To fix the notation:
B1: MYT0482 (antibody, V domains shown)
VH: EVQLVQSGAEVKKPGSSVKVSCKASHYTITDSNIHWVRQAPGQSLEWIGYIYPYNGGTDYNQKFKNRATLTVDNPTNTAYMELSSLRSEDTDFYYCVNGNPWLAYWGQGTLVTVSS
VL: DIQLTQSPSTLSASVGDRVTITCRASESLDNYGIRFLTWFQQKPGKAPKLLMYAASNQGSGVPSRFSGSGSGTEFTLTISSLQPDDFATYYCQQTKEVPWSFGQGTKVEVK
notes: IgG; gemtuzumab VH variant #1 (G26H)
B2: MYT0486 (antibody, V domains shown)
VH: B1 VH with H26G, T30H
VL: B1 VL
notes: IgG; gemtuzumab VH variant #5 (T30H)
B3: MYT0503 (antibody, V domains shown)
VH: B1 VH with H26G, N61H
VL: B1 VL
notes: IgG; gemtuzumab VH variant #22 (N61H)
B4: MYT0489 (antibody, V domains shown)
VH: B1 VH with H26G, N33H
VL: B1 VL
notes: IgG; gemtuzumab VH variant #8 (N33H)
B5: MYT0499 (antibody, V domains shown)
VH: B1 VH with H26G, G57H
VL: B1 VL
notes: IgG; gemtuzumab VH variant #18 (G57H)
B6: MYT0502 (antibody, V domains shown)
VH: B1 VH with H26G, Y60H
VL: B1 VL
notes: IgG; gemtuzumab VH variant #21 (Y60H)
B7: MYT0485 (antibody, V domains shown)
VH: B1 VH with H26G, I29H
VL: B1 VL
notes: IgG; gemtuzumab VH variant #4 (I29H)
B8: MYT0492 (antibody, V domains shown)
VH: B1 VH with H26G, Y50H
VL: B1 VL
notes: IgG; gemtuzumab VH variant #11 (Y50H)
B9: MYT0501 (antibody, V domains shown)
VH: B1 VH with H26G, D59H
VL: B1 VL
notes: IgG; gemtuzumab VH variant #20 (D59H)
B10: MYT0496 (antibody, V domains shown)
VH: B1 VH with H26G, Y54H
VL: B1 VL
notes: IgG; gemtuzumab VH variant #15 (Y54H)
B11: MYT0498 (antibody, V domains shown)
VH: B1 VH with H26G, G56H
VL: B1 VL
notes: IgG; gemtuzumab VH variant #17 (G56H)
B12: MYT0494 (antibody, V domains shown)
VH: B1 VH with H26G, Y52H
VL: B1 VL
notes: IgG; gemtuzumab VH variant #13 (Y52H)
B13: MYT0484 (antibody, V domains shown)
VH: B1 VH with H26G, T28H
VL: B1 VL
notes: IgG; gemtuzumab VH variant #3 (T28H)
B14: MYT0487 (antibody, V domains shown)
VH: B1 VH with H26G, D31H
VL: B1 VL
notes: IgG; gemtuzumab VH variant #6 (D31H)
B15: MYT0497 (antibody, V domains shown)
VH: B1 VH with H26G, N55H
VL: B1 VL
notes: IgG; gemtuzumab VH variant #16 (N55H)
B16: MYT0488 (antibody, V domains shown)
VH: B1 VH with H26G, S32H
VL: B1 VL
notes: IgG; gemtuzumab VH variant #7 (S32H)
B17: MYT0493 (antibody, V domains shown)
VH: B1 VH with H26G, I51H
VL: B1 VL
notes: IgG; gemtuzumab VH variant #12 (I51H)
B18: MYT0500 (antibody, V domains shown)
VH: B1 VH with H26G, T58H
VL: B1 VL
notes: IgG; gemtuzumab VH variant #19 (T58H)
B19: MYT0490 (antibody, V domains shown)
VH: B1 VH with H26G, I34H
VL: B1 VL
notes: IgG; gemtuzumab VH variant #9 (I34H)
B20: MYT0483 (antibody, V domains shown)
VH: B1 VH with H26G, Y27H
VL: B1 VL
notes: IgG; gemtuzumab VH variant #2 (Y27H)
B21: MYT2664 (antibody, V domains shown)
VH: QVQLVQSGAEVKKPGASVKVSCKASGYTFTNYDINWVRQAPGQGLEWIGWIYPGDGSTKYNEKFKAKATLTADTSTSTAYMELRSLRSDDTAVYYCASGYEDAMDYWGQGTTVTVSS
VL: DIQMTQSPSSLSASVGDRVTINCKASQDINSYLSWFQQKPGKAPKTLIYHANRLVDGVPSRFSGSGSGQDYTLTISSLQPEDFATYYCLQYDEFPLTFGGGTKVEIK
notes: IgG; vadastuximab VL variant #12 (R50H)
B22: MYT2674 (antibody, V domains shown)
VH: B21 VH
VL: B21 VL with H50R, D92H
notes: IgG; vadastuximab VL variant #22 (D92H)
B23: MYT2669 (antibody, V domains shown)
VH: B21 VH
VL: B21 VL with H50R, V55H
notes: IgG; vadastuximab VL variant #17 (V55H)
B24: MYT2679 (antibody, V domains shown)
VH: B21 VH
VL: B21 VL with H50R, T97H
notes: IgG; vadastuximab VL variant #27 (T97H)
B25: MYT2667 (antibody, V domains shown)
VH: B21 VH
VL: B21 VL with H50R, R53H
notes: IgG; vadastuximab VL variant #15 (R53H)
B26: MYT2675 (antibody, V domains shown)
VH: B21 VH
VL: B21 VL with H50R, E93H
notes: IgG; vadastuximab VL variant #23 (E93H)
B27: MYT2677 (antibody, V domains shown)
VH: B21 VH
VL: B21 VL with H50R, P95H
notes: IgG; vadastuximab VL variant #25 (P95H)
B28: MYT2671 (antibody, V domains shown)
VH: B21 VH
VL: B21 VL with H50R, L89H
notes: IgG; vadastuximab VL variant #19 (L89H)
B29: MYT2665 (antibody, V domains shown)
VH: B21 VH
VL: B21 VL with H50R, A51H
notes: IgG; vadastuximab VL variant #13 (A51H)
B30: MYT2668 (antibody, V domains shown)
VH: B21 VH
VL: B21 VL with H50R, L54H
notes: IgG; vadastuximab VL variant #16 (L54H)
B31: MYT2676 (antibody, V domains shown)
VH: B21 VH
VL: B21 VL with H50R, F94H
notes: IgG; vadastuximab VL variant #24 (F94H)
B32: MYT2672 (antibody, V domains shown)
VH: B21 VH
VL: B21 VL with H50R, Q90H
notes: IgG; vadastuximab VL variant #20 (Q90H)
B33: MYT2666 (antibody, V domains shown)
VH: B21 VH
VL: B21 VL with H50R, N52H
notes: IgG; vadastuximab VL variant #14 (N52H)
B34: MYT2670 (antibody, V domains shown)
VH: B21 VH
VL: B21 VL with H50R, D56H
notes: IgG; vadastuximab VL variant #18 (D56H)

Changes are numbered by the printed parent chain. Numbers in names are those of the source.

T1 sequence (P20138 18-259 limits assumed): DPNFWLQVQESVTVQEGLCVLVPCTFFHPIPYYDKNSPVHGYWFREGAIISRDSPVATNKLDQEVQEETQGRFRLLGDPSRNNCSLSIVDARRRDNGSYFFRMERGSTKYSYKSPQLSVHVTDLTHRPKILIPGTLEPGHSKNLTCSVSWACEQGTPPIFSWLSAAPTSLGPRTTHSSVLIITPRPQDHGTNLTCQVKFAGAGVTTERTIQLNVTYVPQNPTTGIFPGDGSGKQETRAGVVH

The target of the first assay is T1, CD33 (Sino Biological, Cat #12238-H08H) (UniProt P20138 18-259). Nature of the assay: BLI, IgG captured on anti-human Fc sensor, 50 nM CD33, pH 7.4 vs pH 5.0. From the text:
Multiple CD33-binding monoclonal antibodies have been described in the literature and can be used as a template for engineering pH-dependent binding (Hamann P R et al (2002) “Gemtuzumab ozogamicin, a potent and selective anti-CD33 antibody-calicheamicin conjugate for treatment of acute myeloid leukemia.” Bioconjug Chem 13(1):47-58). Gemtuzumab (Heavy chain SEQ ID NO: 1, Light chain SEQ ID NO: 2) was selected as a CD33-binding monoclonal antibody for pH engineering via histidine scanning. Briefly, CDRs in the heavy chain were identified using the methods described by Kabat et al (Kabat et al. (1992) Sequences of Proteins of Immunological Interest, DIANE publishing) and IMGT (Lefranc M P (1999) “The IMGT unique numbering for Immunoglobulins, T cell receptors and Ig-like domains” The Immunologist 7, 132-136), and for each CDR, residues falling under either or both Kabat and IMGT CDR definitions were called as CDR residues. To generate pH-dependent sequence variants, individual amino acid residues within the heavy chain CDRs were systematically substituted with a histidine, one at a time (MYT0482-MYT0517). In cases where the starting CDR residue was a histidine, it was mutated to an alanine. Antibody variants with only one histidine or alanine mutation in a heavy chain CDR were generated by co-transfection of Expi293 cells with a) one heavy chain sequence variant, and b) the corresponding starting ABPC light chain using methods known to the art. After allowing for four days of protein expression, cell culture supernatants were collected, quantified by SDS-PAGE analysis, (FIG. 1), and the pH dependence of the variant was evaluated using biolayer interferometry (BLI) on an Octet RED 384 instrument. Briefly, cell culture supernatants were normalized to an antibody expression level of 25 μg/mL, and captured on an anti-human Fc sensor (Forte Bio). A baseline was established using 1×PBST (50 mM Potassium Phosphate Buffer+150 mM NaCl+0.05% Tween 20) pH 7.4, and the sensor was associated with 50 nM of CD33 (Sino Biological, Cat #12238) in 1×PBST pH 7.4 for 120 sec to generate an association curve. In the dissociation phase, the antibody-antigen complex on the sensor was exposed to 1×PBST pH 7.4 for 300-600 sec. Baseline, association, and dissociation were repeated using 1×MES (100 mM MES Buffer+150 mM NaCl+0.05% Tween 20) pH 5.0 throughout in a separate condition.
In the case of B1, the binding result is reported as “binds”.

Take B2: the binding result is listed as “binds”.

In the case of B3, the binding result is “binds”.

B4: the binding result is given as “binds”.

Consider B5, for which the binding result was “binds”.

Consider B6, for which the binding result is listed as “binds”.

As to B7, the binding result was “binds”.

As to B8, the binding result is “binds”.

Take B9: the binding result is “binds”.

In the case of B10, the binding result was “binds”.

For B11, the binding result is listed as “binds”.

For the molecule B12, the binding result is recorded as “binds”.

As for B13, the binding result is “binds”.

Regarding B14, the binding result is “binds”.

In the case of B15, the binding result was “binds”.

B16: the binding result is “binds”.

On to B17, for which the binding result is reported as “binds”.

For B18, the binding result was “binds”.

Consider B19, for which the binding result is “binds”.

Turning to B20, the binding result is “binds”.

For the next assay, the target named is T1, CD33 (Sino Biological, Cat #12238-H08H). In words: BLI, IgG captured on anti-human Fc sensor, 50 nM CD33, pH 7.4 vs pH 5.4. A general note: BLI is a label-free optical method that tracks binding on a fibre tip over time.
As for B21, the binding result is “binds”.

As to B22, the binding result was “binds”.

Consider B23, for which the binding result is reported as “binds”.

For the molecule B24, the binding result is on record as “binds”.

As to B25, the binding result is “binds”.

Consider B26, for which the binding result is “binds”.

On to B27, for which the binding result is given as “binds”.

On to B28, for which the binding result is given as “binds”.

In the case of B29, the binding result is given as “binds”.

For B30, the binding result is listed as “binds”.

For B31, the binding result was “binds”.

For the molecule B32, the binding result is recorded as “binds”.

As for B33, the binding result was “binds”.

For B34, the binding result is given as “binds”.
